Our source for the localisation_or_trafficking values is PMC10208891.

Series [1] in a line: anti-Flag immunofluorescence with DAPI. The following applies: glycan lost; control: SFB-YTHDF1-WT, untreated.
Series [2] can be described thus: nuclear and cytoplasmic fractionation, immunoblot. The following applies: glycan lost; control: SFB-YTHDF1-WT. A general note: A western blot detects proteins with antibodies after separation by electrophoresis.

B1: YTH domain family 1 (YTHDF1): AFA (protein)
parent chain: MSATSVDTQRTKGQDNKVQNGSLHQKDTVHDNDFEPYLTGQSNQSNSYPSMSDPYLSSYYPPSIGFPYSLNEAPWSTAGDPPIPYLTTYGQLSNGDHHFMHDAVFGQPGGLGNNIYQHRFNFFPENPAFSAWGTSGSQGQQTQSSAYGSSYTYPPSSLGGTVVDGQPGFHSDTLSKAPGMNSLEQGMVGLKIGDVSSSAVKTVGSVVSSVALTGVLSGNGGTNVNMPVSKPTSWAAIASKPAKPQPKMKTKSGPVMGGGLPPPPIKHNMDIGTWDNKGPVPKAPVPQQAPSPQAAPQPQQVAQPLPAQPPALAQPQYQSPQQPPQTRWVAPRNRNAAFGQSGGAGSDSNSPGNVQPNSAPSVESHPVLEKLKAAHSYNPKEFEWNLKSGRVFIIKSYSEDDIHRSIKYSIWCSTEHGNKRLDSAFRCMSSKGPVYLLFSVNGSGHFCGVAEMKSPVDYGTSAGVWSQDKWKGKFDVQWIFVKDVPNNQLRHIRLENNDNKPVTNSRDTQEVPLEKAKQVLKIISSYKHTTSIFDDFAHYEKRQEEEEVVRKERQSRNKQ
Regarding B1, the localisation_or_trafficking entry in series [1] and in series [2] was “changes” in each case.
